Results published in a protein production outcome set (Wang et al. 2014).

Assay: label from the status in PepcDB records
For “MLNMQRLQTVLLQCAGWLLYMSLLMLIALALPADIFDSQSKHFIFLVGAVGIWRYSMGATHFIRGMIFLYGVYPYLRRKVQKMGNATDPSHVYLMVTSFRIEALTTAQVYSSVIREAINCGFPTTVVCSLVEMSDELLVKSLWAKYNPPAHVKLDIVRIAGTGKRDGLAYGFRAISRMLPDENAVVAVIDGDTVLADGVVRKTVPWFKLFPNVGGLTTNEFCEVRGGYIMSEWHKLRFAQRHINMCSMALSKRVLTMTGRMSMFRASVVTNPEFIADVESDSLMHWRLGRFKFLTGDDKSSWFSLMRLGYDTFYVPDAAINTVEHPPEKSFLKASRKLMYRWYGNNLRQNSRALGLGLRRLGLFTSIVLFDQRVSMWTSLLGLTVAVIASLKFGMAFLLVYLLWIGITRLILTIMLLCSGHNVGPAYPLILYYNQIIGALMKIYVFFRLDKQSWTRQPTALKRDLASFQQWFNTWSSRTMTFSAASIFVAVLFMVV”, the protein production was “failed”. With “MLNRVFLEGEIESSCWSVKKTGFLVTIKQMRFFGERLFTDYYVIYANGQLAYELEKHTKKYKTISIEGILRTYLERKSEIWKTTIEIVKIFNPKNEIVIDYKEI” the protein production was “not failed”. In the case of “MLNSHPKKTQSLYRAGLVVLQITESLLILALLYQAINKLIFINNYSIKFMLTFILYSPEFFMANLTTYYFIYEKFKILHSIIVITKLFQIILTLLLFILGFIFKIYVYQTSLAIILGITVVYLVFNVTILVLIKAKIKNLE”, the protein production is reported as “failed”. For “MLNYRQLHYFWVVAKTGSIVRACEQLNLTAQTVSGQISLLEAALGVDLFQRVGRRLEMTEAGRLALPYAEQMFQLGDELESLLRSQPDEQQLLLRIGVADVVPKSIVYRLIAPTMELAEPIRITCREDKLERLLADLAIQRLDLVISDSPMPPHLDIKGYSQKLGECGVTFFATREVAERVGSDFPQCLHGAPLLIPGQETVVRGRLMRWFAEQKIQPRIIGEFDDSALMKAFGKSGSGIFVAPSVIVDEVQGQYGVQVIGQTDAVTESFYAITVERKVRHPGVVAIAESARNQLFTDAG”, the protein production was “failed”. With “MLPAEYNVLVDYTGASTFTTFFFLLFFYVLDCYNVGHEDVRDSIARVSVASVLGIIFTGFTFYSFEHWRFERTTFVVLLLLVVGMTLLWRMVYHRFGQRFTTRPRVVLVGVDRAGRVRKLLNEGMPEAEILGYVGEGDVDPDAGPCLGAPYEPVEIARRYGATMLVMLPDAPVDEDIARDLLDAKLRGLMVVDIRTLYEHVAKRIPVDQIRDEWLLTEDGFNLNTQGSVRRLKRAFDVIVSLSLLITTAPIMLVAAIAIRMESPGPVIYRQKRVGINEQEFMVLKFRSMRTDAEKDGAVWATKGDSRVTRVGRFIRKVRIDELPQLWNVLRGDMSMIGPRPERMEFVRQLEKVIPYFYVRHSVKPGITGWAQVCYPYGASVEDARYKLEYDLYYIKNMSPLLDIQIVLKTVGVILFPKGAR” the protein production was “failed”. In the case of “MLPDSSVRLNKYISESGICSRREADRYIEQGNVFLNGKRATIGDQVKPGDVVKVNGQLIEPREAEDLVLIALNKPVGIVSTTEDGERDNIVDFVNHSKRVFPIGRLDKDSQGLIFLTNHGDLVNKILRAGNDHEKEYLVTVDKPITDEFIRGMGAGVPILGTVTKKCKVKKEAPFVFRITLVQGLNRQIRRMCEHFGYEVKKLERTRIMNVSLSGIPLGEWRDLTDDELIDLFKLIENSSSEAKPKAKAKPKTAGIKRPVVKMEKTAEKGGRPASNGKRFTSPGRKKKGR”, the protein production is reported as “not failed”. With “MLPDVQLLKPEVPIGLSRVGATGIKKLVEVQREGKRPIILISTFDVFVDLPAHLKGVNLSRNFEVIDEVLETLTAKPIENIEDLVVEIADHLLKRHEYATKAEARMNSELIMRKRTPKTGQRTQEVVKIFGEATLGRDGSKVIMVGVEVTGITACPCAQELVKASSAERLAKMGFDEETIQKILDAIPVATHNQRGRATLKVQVTDSFKVPIAKLIDVAKSSMSYETYEILKREDELAVVEAAHRNTRFVEDGVRYMAMELLKTFPNAPDDILVFLRQENEESIHQHNVVAERFA” the protein production was “failed”. For “MLPGVGVFGTSLTARVIIPLLKDEGFAVKALWGRTQEEAEELAKEMSVPFYTSRIDEVLLHQDVDLVCINLPPPLTRQIAVKTLGIGKNVICDRTATPLDAFRMTSAAHYYPKLMSIMGNVLRFLPAFVRMKQLIEEGYVGEPLVCEVQVHGGSLLGKKYNWSCDDLMGGGGLHSVGTYIIDLLTFLTGQKAVKVHGLLKTFVKQTDHIKGIRQITSDDFCTFQMVLEGGVCCTVTLNFNVPGEFKQDVTVVGSAGRLLAVGTDLYGQRNSAPEQELLVQDATPVSNSLLPEKAFSDIPSPYLRGTIKMMQAVRQAFQDQDDRRTWDGRPLTMAATFDDCLYALCVVDTIKRSSQTGEWQNIAIMTEEPELSPAYLISEAMRRSRMSLYC”, the protein production was “failed”.
